From the RNAGym collection of RNA variant scans (doi:10.1073/pnas.2313332121)

B1: TPR t1 (parent)
chain: GACCAAUCUGCCCUCAGAGCUCGAGAACAUCUUCGGAUGCAGAGGAGGCAGGCUUCGGUGGCGCGAUAGCGCCAACGUCCUCAACCUCCAAUGCAUCCCACCACAUGAUGAUGCCUGAAGAGCCUUGGUUUUUUG

Variants of: B1
Assay: polymerase ribozyme fitness, log enrichment relative to wild type (log ratio); higher = more active; in vitro selection for triplet polymerase activity
Procedure, shortened: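 One round of in vitro selection, in triplicate, was applied to PCR-built, transcribed mutant libraries of each subunit of a heterodimeric triplet polymerase ribozyme. The steps were annealing with a biotinylated primer, partner subunit and triplets, incubation frozen at −7 °C, gel excision of extended constructs, streptavidin-bead capture and RT-PCR. Fitness is the logarithm, base 2, of genotype enrichment over wild-type enrichment from inverse-variance-weighted replicate averages of Illumina-sequenced inputs and outputs, keeping genotypes with ≥10 input reads and ≥1 read per output.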

Variant	polymerase ribozyme fitness (log ratio)
A50C A100C	-1.68
A50C C89A	-2.41
A50U G63U C89U	-3.86
G51A A83G G120U C123G G128U	-2.51
A50U C73U G117C C123A	-5.84
A50C C76U C88U	-1.73
A50U G61C C79G U106C C115U C124A	-5.24
A50U C124G	-0.185
C49U G58C A111C	-0.939
C49U A95C	-1
A50C C115A	-1.39
A50G C73U	0.871
C49U C73A C102U	-2.56
A50G C123U	1.02
C49U G58U C62G	-1.16
A50C C53G C86U C88U G107U A121U	-5.3
A50U U54A G63C U112A	-2.51
C49U C56A	-1
A50G C56A	-0.266
A50C G61C G127A	-5.03
A50U C86U G93U U112C	-1.3
A50C G63A U125G G127U	-2.41
A50C C82A	-0.499
C49U G58U C62G A119U C124U	-1.37

Variant	polymerase ribozyme fitness (log ratio)
A50U C62U U133G	-1.1
A50G G60C C94U	-4.35
A50U G51U G69A C97U U109A	-6.25
A50U G57A U130C	-1.53
G51A C64A A84C G117C	-6.48
C49U G61A	-0.0564
C49U G61C	-1.88
C49U U55A C62U C99U A111U	-7.19
G51A C64G C101G G113A C123A	-6.84
C49U G77A C123G	1.03
C49U G63C C85U	-1.05
A50C G69A G120A G127A	-3.94
A50G G128C	-1.8
C49U G77A	0.352
C49U G77U	0.0294
C49U G113C	-3.45
C49U C94U	-1.08
A50C C72U G135A	-1.52
A50C G60C U81G C86U G120C	-1.06
A50U C62G U112G	-5.81
G51A A103G	-6.42
A50G C53G G60U C72U C101A G117A	-4.06
G51A A74G U131A	-1.77
A50U G61A U106A	-1.03

Variant	polymerase ribozyme fitness (log ratio)
A50U U81C C114A	-6.09
A50G G57A C72U U96C C114U	-4.36
A50C G69C C104U	-1.11
A50U C64U A105C A118U	-4.51
A50U C64U A111G U125A	-1.48
A50U G128A	-3.35
C49U G60U U106A G127U U130G G135U	-1.71
A50G U130G	-0.32
A50G U130C	0.163
C49U C123U	1.01
C49U C72G C97U U106A	-0.73
A50U G57C A119U	-1.85
A50U C56U C73G C88U	-3.49
C49U C70U U130C	-0.66
A50U C101U A105U A121U U130C	-2.62
C49U G57C	-0.696
A50G C73A C82U	-0.0319
C49U C62U	-1.19
A50U C115G A121C G128U	-4.2
A50C G71U U87A	-1.95
C49U C72G	-0.927
A50U C62U U109A A111C G120U A121G	-7.17
C49U G93A C97U U116C	-3.84
A50U C64A A100C A111G	-6.26

Variant	polymerase ribozyme fitness (log ratio)
A50U C82U	-1.15
C49U C114U	-2.25
C49U C114G	-3.71
C49U C114A	-2.34
A50G C70U C72G	-3.42
A50U G61U C94A G110U	-4.5
A50U G63A U106C	-3.09
C49U U78G U96A G113A C115A	-5.23
A50U C53A U54A G93U A105U	-3.45
C49U C97G	-5.89
A50U U125G U129C	-2.41
A50U U55G G58A	-5.41
C49U U59G	-1.24
C49U C104U	-0.182
C49U G127A	-1.64
A50U G57U	-1.1
A50U U81A C85G	-0.884
C49U C98U U125G	-2.62
C49U C85G	-2.2
C49U C86U C88G C115G	-4.09
C49U G63C G93C C124U	-0.998
G51A C73G	-0.931
A50C G61U C79G	-2.93
C49U C53A	-0.289

Variant	polymerase ribozyme fitness (log ratio)
A50G C99U C115U G117C	-6.47
A50U G60A C123G	1.09
A50G G60C C94U U129G	-3.05
A50U C62A C82A	-1.33
A50U G52A	-2.66
A50U G52U	-2.39
C49U U106A U116G	-4.54
C49U C115G	-2.23
C49U C115U	-1.16
C49U G52A G71C	-5.43
C49U A95G U112A	0.0263
A50U G120A	-0.296
A50C G69U U125A	0.0264
A50U U87G G113U	-4.19
A50C C94U C123U	1.49
A50G C53A C72A	-0.193
A50U G60A C70U G93A	-3.24
C49U C73A A74U C102U	-3.4
A50C A75G A95C C123U	0.24
A50U C62U A83U U133A	-1.52
A50C A111C C115U U129A	-6.02
A50U U106G	-2.78
A50C U55G G58C G61C U81A	0.349
C49U U129A	-1.47

Variant	polymerase ribozyme fitness (log ratio)
A50C C72U G93U U112G	-2.29
A50G C53A C70G	-2.47
A50C G71U	0.242
C49U G51A G63C	-3
A50U G135U	-2.36
C49U G57U G110C	-4.9
A50U U54C U106A G117A	-1.12
C49U G52C U55C	-1.55
A50C C56G A105U G120C	-2.11
A50G G69U	0.675
A50C A74U	-1.45
A50U U87G	-1.44
A50U C115U	-2.37
C49U U96A U106A	-1.67
A50C U55G G58C G61C U81A C124A	0.946
A50G C104A	-1.49
A50G C104U	-0.208
A50G C62A U67A A84G C97U G110C A118G	-8.94
A50U U96A	-1.77
G51A C53U C62G G69U C82U G120U	-6.98
C49U C56A U109A G117U	-5.98
A50U C56G	-1.76
C49U G135U	-1.61
A50C C70U U116G G117A	-4.23

Variant	polymerase ribozyme fitness (log ratio)
A50U U81A	-0.662
A50U U81C	-1.83
A50U A83C C89G	-5.74
A50C C62A C98A A111U U112A	-6.58
A50U C98U G107A C115A	-5.98
A50C C72U	-0.602
A50C C72G	-0.555
A50C C123G	0.334
A50U U109A A111C G120U A121G	-6.95
G51A C56U	-0.934
G51A C56G	-2.03
A50C C53G C73A U126G	-2.99
A50C C70A C82G A84C	-2.37
A50U G69C	-1.7
G51A C56U G63C A84U C99U A121U	-6.23
A50U U59A	-0.619
A50G C89G	-1.08
A50C G63U U81A U129A	-2.04
A50G G69A A90C	-6.86
C49U C73U A74U	-0.941
C49U U54C G117U G128A	-5.68
A50C C88A	-1.03
G51A A95U	-3
